A value given as a limit tells only on which side of the number the result lay.

The values below come from the supplement of paper PMC12636428.

The subject of the series is Saccharomyces cerevisiae. The series is described as follows: transcriptional activation domain activity (GFP:mCherry ratio, weighted mean of sorted bins, harmonized to initial dataset scale) (arbitrary fluorescence ratio units); higher = stronger transcriptional activation. Conditions: beta-estradiol 1 µM; induction time 4 h. In a few lines: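 Each value is an activation activity: the read-weighted mean of bin median fluorescence, averaged across barcodes, then mapped linearly to the initial dataset scale. The tiles, fused to an estradiol-inducible synthetic transcription factor, sat at the yeast URA3 locus in GFP-reporter diploids. Cells spent 4 hours at 30 °C in SC with 1 uM beta-estradiol before sorting into 8 GFP:mCherry bins, and tiles below 50 reads were removed.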

Turning to “MMRCRFGVVFRILPYYLFVFPQIFIYLLLDSFDVQSSLPLLLLYTSLIILVTW”, the “transcriptional activation domain activity” value was 56900.
For “SMLNGFAGLDDIPMENILRFLNRFVVNNLLLDILCQCSRHARRTLAGNIFRAA” the value was 47000.
The result for “YALEWNGLVVRSFAYHTVFGIAKVGFFLYHFLFSSFVFSLLLSLVIFFFFFFF” reads 32600; that for “DERRLVWPSRLTFMKVVFLLNRYVPFAGSFGMMYVLTLVNPVTQSDFCKHGFL”, 54900.
For “EKVGTLWRARDVNERRQAKASGAAGGAAKATKPAGAAAASGAKPKATGAAGAA” the value was 21900; for “GLKLSPSSSGLLSTNESNAIEQFLDNLISQDMMSSNASMNSESHLHIRSPKKQ”, 68400.
As to “AAPAAADPTPKKRGRPPRVSGAAEVAAAPEPAAEQPKKGRGRKAAEPAPEPVV”, the “transcriptional activation domain activity” value came to 23100.
As for “FMNTNEINNNNNNNNNNKNNINNINNNNSNNFSATSFNLGTLDEFVNNGDLED”, the “transcriptional activation domain activity” value turned out to be 11800.
For “LSSLPPSAPPFPPPSPLPPPLCFPLPPLFPPFLPSLSFPLSPPPSHFPFPLIP” the value was 27100; for “FFFFLLFFPLPFFPSSFPFFFLIHLLISSSLVFPFSSSSSSLTQVFWCLCFFF”, 57400; for “MALYLTFRHCPELFYWVKLRRVSRKIHTFISSIFNIFLYVLMLMNGCIIHHYI”, 57200.
For “SICRLGVGLSITGYRLGSMVLLRHDLRLIVTVFSMHLKYFVSFARPSMKILLR” the value was 67300; for “VYIYAKTISIVLLTDIYIGKYTYILISLKLLARKKFYNILTNPIFCAHIRLVI”, 55300.
The result for “YFILFPFHHFLSPSLHSAPAFWCTLLLFTYVLVFFFGTLYHMVMFCFVCLFIC” reads 94500; that for “MDGSEANRPYHAKKPHRKSRSGCRNCKTRKVKCDESRPTCRACRLRREACAYP”, 16600.
In the case of “ERPREKKEHSRRHRDDEEKGRRRRHRSRSRSRDRRERRRERSRSRERRRGGDE”, the “transcriptional activation domain activity” value was 13000.
Take “RGREDNEDGGRNKRRGGGRFEGRRGRGDRDGNRRRDTRDSRREDKSTANGDAS”: the “transcriptional activation domain activity” value was less than 6570.
For “MCLCLLLLLLLHVFIFFMSFYPSGWPPSYSIIFFLWSFILVVFYPCKFFFLVV” the value was 70400.
Consider “LLFVTDWALVGLGRFSESCIFFFLFSLWYNFCLHRFFISPTLYSSLTWHCVTS”, for which the “transcriptional activation domain activity” value worked out at 42800.
The result for “PKDGAKEEKKSSKSRGEEKRSRSDRKEREREEKSSKGSASDKAEQPPKATASS” reads 6730.
With “GSRRPRKDKSHKKKDRSSGDGTEKERKHRDRGDKGDRERAKSRERGEKGKRDR”, the “transcriptional activation domain activity” value was 20500.
The result for “MFLCCVCIEAQARILYLCCLYKLLTFYSFYYFYHSYFLLILNFFLLTILHALC” reads 74000; that for “YINCGIKMFDPSSIITRRYIRMWPRKQANRVLGMLDKMSQSGGFTKVFFRLLY”, 58000.
Consider “ERGKRKEGRKEEEGKEGEKGKEEKREEKRRGKRGEEKREGKKKEERRRGRRRR”, for which the “transcriptional activation domain activity” value amounted to 20800.
For “MLQQRGILRVFRIGLFILFVILLFSFLVFVTFFISLAFPHLLLVLCIFFHFFN” the value was 44200; for “TSPKKKGRAAAKGKKGADKENAEAKTEVEKKASEDEFKDLEPNGDSKTNGAAA”, less than 6570.
The result for “DLHLICNMVNGSTTFHSGESWTPVCLPRFNSKGFLHAYVCFVAKETCLVLISP” reads 30300; that for “MGLSDWPRVLSWHASISLVYLPFWVVVSLVWRYHIWTLSSVVLIIFIHIIFGL”, 31700; that for “SNKRPSSGPARGGRNNGGRGNNQNANNNRGGRRGRGGAKESGAPNGQKKAGAP”, 9410.
For “QLYCILNPPHLFVFPPKEISSVLFLVGVVHYVLYGLYYMLLLYNLFRFGLLTY” the value was 45700; for “NVSDAPRIEPLPSLNDDDIEKILQPNDIFTTDRTDASTTSSTAIEDIINPSLD”, 61300; for “VRTVIESNRRLNLAVVSKSQRWRCSKIWIPGLLMHVFNFWCIVYMITFNAVWD”, 49800.
In the case of “PVNFIFVKLAKVFPLDYLFMVLLIIYFFLVTLTGIITLGVRFFWITLFRIRRG”, the “transcriptional activation domain activity” value amounted to 19400.
For “GFSCHTRILGRPIIISTSTSYIGILLDLVRTFYFLYLLLRILLKVFLAVWCFL” the value was 63700; for “RIILINPLICGATLMLVFAAIGGGWRNVAIEIFVDHGYIRLLFILCTIPQIWL”, 56800; for “LLLFNDEYTHIWSTPSFALKWIYLFARYFPLLFQSTSYYLLTHILSRPPISWS”, 61800.
The result for “RRKEKKPRFAKKDKGSKEPVSKTCRIALRIKLCHGNICVMEVSLSVLASLVLH” reads 53100.
The result for “DDGESKEKRSRREKSAASEDESRKRSKSRSKSKSKTPSGNDESSNEDTSAGAD” reads 18600; that for “MTVLQYPFRFIVRTHFPLIWAYSSSLGVGYVFLIGSFFLFISLHPLPLFCLLC”, 66100; that for “LRKSQDRLWAERPWYFYPMYFNEHGNGIFPEVVHLNDAVVIGVLHYYLIQVLL”, 46400.
In the case of “ELLYKSYLCHLFSFFFPFPFYNIFNIIVHLFFFFLSFLSFFYYFNIYSCLYIY”, the “transcriptional activation domain activity” value worked out at 69800.
Turning to “AASFISRTMLVLARQKFYNWYGVPQRRLYRDQSVHGTTKKRTWLIKLLSPLLF”, the “transcriptional activation domain activity” value was determined as 47200.
For “VLKALWSFAYTFGLFIFCNGSIYYFVARIFGSYYRVLDSPIVGFRWSNIHLFL” the value was 57100; for “DGCIFFALITFALMLRIATAFCMRGPIHAIFLPWSIVCYYYAGSHLLLNLRWY”, 46300; for “YIPVNYFLVVLYSNKEYPGLYKEIEKGLILLYHICTIRNDGTMFLNMKLYKNK”, 36000.
For “VREWHVDLSFSSFGKTLLRELESLLERVRANWLEEVTVRTIALICSRLLASTI” the value was 60800; for “VTFILALLVRLRRNLPLYSWMHWLHRHIDTLSSYDGISARPAWALFFIRLVWY”, 74400.
Regarding “ANGSSATTPEPDGKTAAGTAAVPKRKQTEKKANGPTKKQKTGSPKKGGRKGAS”, the “transcriptional activation domain activity” value was found to be 27700.
The result for “MIITFYTFFSFFPFFISFSLSLFSLRYFFFFFSFLSLSFFFFLFFLILIHLFL” reads 14400; that for “TLQRIVLDFFTAPCFSDVIVADILTSFARVFGDLSTVFFTLVWGSCPHWIPPF”, 61200; that for “TGGLAELQDTLDDARASFAYVRVKYSNDKESQREKFILIVWIGKSVKVMRRAK”, 33600.
For “QRGKPYDLHSSDGSSEKKRTEKVGLSAGKQHMWILLRPKAAMWAVCVVLASPE” the value was 38700; for “APRARPAPAQRVGPRARAAEQLHRADGQHRERARRQHGRRHPPAAGAAPAVRL”, 52800.
For “MWLVEVQLLHQSHSLLSHIICLFFLSPHLPSFVFSGALFVYSVMLVSLFFLYL” the value was 37400; for “DFDVNEFDPQVLFSTGTRTVEFMDDQNQPSSASAFLSTARPNHYSTHTPTTDV”, 75300; for “IFFSQFGRYWIVFPGILFLTSVALSLILIVMLCIPGINLWTTISINLAIPYWA”, 27300.
For “DVDWWNVSSSETTFDAASLPLDVWDPLLPHDTGLSEIEVTTCWLDPWIIPFIT”, the “transcriptional activation domain activity” value is 132000.
For “SDEEGEMADRLADDDLDVSVLKTAKELAETAALYRIRNRRPTAHLVLPRVVEG” the value was 40200; for “RVVSAFGWKADKHLGFALLKLCLEDRRIRSPMASLMLLAYYTVLTSLCPQVLA”, 60900.
The result for “CLIVARVVTVVFPFNFCFYFFVERILISVPVVCVCEVCVLEWCVWLRFLFACA” reads 32000.
The result for “AVGYIWYIPFYHYNYSILRAGMMTNFFWASLCLVYSNIRPYSEIGIVYLLLCP” reads 69800; that for “SVGASSGSGSGSGKRRGEEGEEGDEGEEGEEGDEGEEGDEEEGVEELVQGEGQ”, 7800.
Take “INCQVVYQLQGITGHMALNFASINFAIRTIYIWMHNVYVTSTLSLLILCQWVI”: the “transcriptional activation domain activity” value came out at 54700.
On to “SASAAAKPAAAPLKKSTSGSLASKPAMSSTKPAAAPAAAPARRASVVPAKSSA”, for which the “transcriptional activation domain activity” value was 33900.
The result for “NWYWLATTMYFLYGESVVYYLKHIVLVDKVLLPLATHHRFISFILYVFGFVFF” reads 46100.
The result for “RMGMTQELLALVTGLAHYLKILIRIALTGALKLERDYVLREAISSFLDKLHLL” reads 69700; that for “RGGNPSGNAGGAGRRAKKSKDRDRNKKKSKKNSGQSGDRSTSSSKNKNKKGGG”, less than 6570.
For “EEGAATDGTADANGKPKKAPRKRKSQAGATTEDGQAPKRRKKKSTDAAGGAAA” the value was 31300; for “GKPRKRLAQACLTCREKKIKCDPGSPKCAQCQKSHRICRGTGSVASSGGPVGV”, 19000; for “SADIERRHHKKNHKGGANAGNAAGNNNNAGGNAGNATAAAANRRDVVEDLQSR”, 13900.
In the case of “GQSRGTTSGTIATGLCAGLSRGIAESVELQKRIDFALAGYFRYIRWWRLGFMS”, the “transcriptional activation domain activity” value was determined as 69900.
For “MYPFLFFLSFLLFSSLTFLFSLLSFEFKFFFTFSSSFFFFCLTLCFFCQSFFF” the value was 36400; for “MPIGPIIMLYPMRKHHSILPCKIQRLLEYLWSFLLIQKDWYRYEQTNKYSIMA”, 40100; for “IFLHIFLLVLLRLLFLLLSLFYFLLLPHFFYNQPSLLLRLFLNFFQLSLSILL”, 34100.
